Test system: T1, MprA(D51E) D51E (Corynebacterium glutamicum ATCC 13032), ORF:c49de587
T1 sequence: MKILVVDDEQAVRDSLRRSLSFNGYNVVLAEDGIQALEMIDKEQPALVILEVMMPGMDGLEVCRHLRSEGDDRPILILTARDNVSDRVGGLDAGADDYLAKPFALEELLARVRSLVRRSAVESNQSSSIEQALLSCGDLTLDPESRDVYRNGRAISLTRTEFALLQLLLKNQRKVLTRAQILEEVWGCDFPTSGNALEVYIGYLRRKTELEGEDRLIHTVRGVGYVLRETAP
Experiment: EMSA
Details: Buffer P: 50 mM Tris-HCl pH 7.5, 50 mM KCl, 10 mM MgCl2, 0.5 mM EDTA, 10% glycerol; 30 min at 20 C; DNA 25-107 nM, protein 0-64-fold molar excess; 6% native …

In the case of “CGATACCCTTTTCGTCTTCCAGTCCGTGACAGACTTCCTCCCAATTAAGACGTCCACGCGTTGGAACATATTTCACTTATGCTAACACCTCTTAAGCATAAAGAAGCCAGTTACCTCCTCATTTTAAGAGAAGATAACTGGCTCTTGTTAAATTCTTACCTACAAAAGGTTGTAGGCGATGAATTTAAGGTTTAGAACTGCTCTACGTCCACGAGACCGAGCTGTGCTGCCTTAACCAGACGGCGTGGGATGCGAACGGTCTGACCGTCGATCTTGACCTCCTGAAGGGCGACATTGTCG (double strand) [mprA promoter]”, the binding is reported as “binds”.

Source: publication PMC12113857
